Laboratory results reported in article PMC11417767.

Molecular target: FAIM2 (Fas-apoptotic inhibitory molecule 2) (UniProt Q8K097)
Test: FAIM2 immunoprecipitation, αA-crystallin immunoblot
Conditions: reference: wild type; sites T148

binding against the reference: weaker
Substance: αA-crystallin (HSPB4/CRYAA) (from UniProt P02489) T148A
